The record followed here is US20210032347A1 (JIANGSU HANSOH PHARMACEUTICAL GROUP, published 2021).

Changes are numbered by the printed parent chain.

In assay [1] the target is T1, Human B7-H4 with HisFlag tag (huB7-H4-his) (human, UniProt Q7Z7D3 25-258).
T1 construct: also called HuB7-H4 His protein; huB7-H4-HF
T1 sequence: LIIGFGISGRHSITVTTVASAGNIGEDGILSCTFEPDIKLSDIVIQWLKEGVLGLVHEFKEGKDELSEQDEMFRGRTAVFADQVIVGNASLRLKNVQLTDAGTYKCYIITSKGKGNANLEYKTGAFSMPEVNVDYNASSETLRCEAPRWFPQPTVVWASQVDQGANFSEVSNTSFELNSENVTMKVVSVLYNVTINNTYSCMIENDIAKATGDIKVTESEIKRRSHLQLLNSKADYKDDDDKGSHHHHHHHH
Put plainly: indirect ELISA, plate coated with HuB7-H4 His. As to the method:
The plate was washed with PBST (PBS comprising 0.05% Tween-20, pH 7.4) four times, and then 150 μl/well of 3% bovine serum albumin (BSA) blocking solution diluted in PBST was added, and incubated at room temperature for 1 hour for blocking. After the blocking was finished, the blocking solution was discarded and the plate was washed 4 times with PBST buffer.
The antibodies to be tested were diluted with PBST comprising 3% BSA at a gradient of 10-fold dilution, starting from 1 μM with a total of 10 doses. The dilutions were added into the plate at 100 μl/well, and incubated at room temperature for 1 hour. After the incubation was finished, the plate was washed 4 times with PBST, 100 μl/well of HRP-labeled goat anti-human secondary antibody (Abeam, cat #ab97225) diluted in PBST comprising 3% BSA was added and incubated at room temperature for 1 hour. The plate was washed 4 times with PBST, 100 μl/well TMB chromogenic substrate (Cell Signaling Technology, cat #7004S) was added and incubated at room temperature in darkness for 1 minute, and 100 μl/well of Stop Solution (Cell Signaling Technology, cat #7002S) was added to terminate the reaction. The absorbance was read at 450 nm using a microplate reader (BioTek, model Synergy H1), and the data was analyzed.

The target in assay [2] is T1, Human B7-H4 with HisFlag tag …. The assay can be described thus: SPR Biacore T200, antibody coupled to CM5 chip, series of huB7-H4-his concentrations, 1:1 model. As to the method: b). A series of concentrations of human huB7-H4-his protein diluted by the same buffer were respectively loaded at the flow rate of 10 μL/min and the chip was regenerated with the regeneration reagent provided in the kit. Antigen-antibody binding kinetics were recorded for 3 minutes and dissociation kinetics were recorded for 10 minutes. The resulting data were analyzed by GE's BIAevaluation Software using 1:1 (Langmuir) binding model.

The target is the same in assay [3]. Put plainly: SPR Biacore T200, antibody coupled to CM5 chip, 50 nM huB7-H4-his in flow, 1:1 model. The method, then:
a). 50 nM human huB7-H4-his protein (Sino Biological #10738-H08H) diluted by the same buffer was loaded at a flow rate of 10 μL/min, and the chip was regenerated with the regeneration reagent provided in the kit. Antigen-antibody binding kinetics were recorded for 3 minutes and dissociation kinetics were recorded for 10 minutes. The resulting data were analyzed by GE's BIAevaluation Software using 1:1 (Langmuir) binding model.

B1: chimeric antibody M1 (antibody, V domains shown)
VH: EIQLQQSGPELVMPGASVKVSCTASGYPFTTYNMYWVKQSHGKSLEWIAYIDPYNGGTSYNQKFKGKATLTVDKSSSTAYMHLNSLTSEDSAVYYCARSGFYDGYYAWYFDVWGAGTTVTVSS
VL: DVVMTQTPLSLPVSLGDQASISCRSSQSLVHSGGNTYLHWYLQKPGQSPKLLIYKVSNRFSGVPDRFSGSGSGTDFTLKISRVEAEDLGVYFCSQSTHVPLTFGAGTKLELK
notes: also called ch-M1
Turning to B1, the EC50 in assay [1] was found to be 0.063 nM. For the same molecule, in assay [2], binding was characterised by a dissociation constant (Kd) of 0.14 nM, the koff is 9.41e-05 s⁻¹ and the kon stood at 674000 M⁻¹ s⁻¹.

B2: M1 (listed as murine antibody) (antibody, V domains shown)
VH: B1 VH
VL: B1 VL
With B2, in assay [3], the koff worked out at 3.98e-05 s⁻¹.

B3: chimeric antibody 2F7 (antibody, human IgG1, V domains shown)
VH: EVQLVESGGGLVQPGGSLKLSCAASGFTFSNYYMSWVRQTPEKRLEWVAYVSSGGGSTYYSDSVKGRFTISRDNAKNTLYLQMSSLKPEDTAMYYCTRESYSQGNYFDYWGQGTTLTVSS
VL: DIVMTQSPATLSVTPGDRVSLSCRASQSISDYLHWYQQKSHESPRLLIKFASQSISGIPSRFSGSGSGSDFTLSINSVEPEDVGVYYCQNGHSFSLTFGAGTKLELK
notes: also called ch-2F7
As to B3, in assay [1], the EC50 is 0.17 nM. In assay [2], this molecule yielded a Kd of 68.8 nM, a koff of 0.00304 s⁻¹ and a kon of 44200 M⁻¹ s⁻¹.

B4: murine mAb 2F7 (antibody, V domains shown)
VH: B3 VH
VL: B3 VL
notes: Murine antibody from hybridoma
On to B4, for which the koff in assay [3] was 0.00253 s⁻¹.

B5: chimeric antibody 2A10 (antibody, human IgG1, V domains shown)
VH: EVQLVESGGGFVKPGGSLKLSCAASGFTFSTFGMSWVRQTPDKRLEWVAGISPGGSYTYYPDTVKGRFTISRDNARNTLYLQMSSLRSEDSAMYYCTRGRSVWGTGTTVTVSS
VL: DILMTQSPSSMSVSLGDTVSITCHASQDISSNIGWLQQKPGKSFKGLIYHGTTLEDGIPSRFSGSGSGADYSLTISSLESEDFADYYCVQSAQFPWTFGGGTKLEIK
In the case of B5, the EC50 in assay [1] is 0.071 nM.

B6: chimeric antibody 2F4 (antibody, human IgG1, V domains shown)
VH: EVQLVESGGGLVKPGGSLKLSCAASGLTFSRYAMSWVRQTPEKRLEWVAGISSGGSYTYYSDTVKGRFTISRDNVRNTLYLQMSSLRSEDTAMYYCGREYGRDYWGQGTSVTVSS
VL: B5 VL with D28G, S30N, T53N, I58V, A69T, S91Y, W96R, K103T
notes: also called ch-2F4
As for B6, the EC50 in assay [1] was found to be 0.056 nM. For the same molecule, in assay [2], binding was characterised by a dissociation constant (Kd) of 2.5 nM, the koff is 0.00259 s⁻¹ and the kon was 1.04e+06 M⁻¹ s⁻¹.

B7: murine mAb 2F4 (antibody, V domains shown)
VH: B6 VH
VL: B5 VL with D28G, S30N, T53N, I58V, A69T, S91Y, W96R, K103T
notes: as for B4
For the molecule B7, the koff in assay [3] stood at 0.00166 s⁻¹.

B8: murine mAb 2A10 (antibody, V domains shown)
VH: B5 VH
VL: B5 VL
notes: as for B4
Take B8: in assay [3], the koff turned out to be 0.000331 s⁻¹.

B9: murine mAb 1E4 (antibody, V domains shown)
VH: EVQLVESGGGLVKPGGSLKLSCAASGFTFSRYAMSWVRQTPEKRLEWVAGISSGGSYTYYPDTLKGRFTVSRDNARNTLYLQMSSLRSEDTAKYFCASQGSNHYFDYWGQGTTLTVSS
VL: B5 VL with I2T, D28G, S30H, S31N, G46A, T53N, I58V, T74I, S91Y, W96Y
notes: as for B4
Take B9: the koff in assay [3] worked out at 0.000293 s⁻¹.

B10: chimeric antibody 2G6 (antibody, human IgG1, V domains shown)
VH: EVQLVESGGGLVKPGGSLKLSCAASGFTFSRYGMSWVRQTPEKRLEWVAGINGGGSYTYYLDTVKGRFTISRDNSRNTLYLQMSSLRSEDTAMYYCVSQGSNYYFDYWGQGTTLTVSS
VL: B5 VL with L3R, D28G, G46A, T53N, I58V, S91Y, W96Y
Take B10: the EC50 in assay [1] turned out to be 0.081 nM.

B11: murine mAb 2G6 (antibody, V domains shown)
VH: B10 VH
VL: B5 VL with L3R, D28G, G46A, T53N, I58V, S91Y, W96Y
notes: as for B4
In turn, B11 displayed a koff in assay [3] of 8.91e-05 s⁻¹.

B12: chimeric antibody 2F8 (antibody, human IgG1, V domains shown)
VH: QVQLQQPGSVLVRPGASVKLSCKASGYTFTNSWMNWAKLRPGQGLEWIGGIYPNSGNIEYNEKFKGKATLTVDTSSSTAYMDLTSLTSEDSAVYYCARDSRFSYWGQGTLVTVSA
VL: DIVMTQSHKFMSTSVGDRVSITCKASQDVRTAVAWYQQKPGQSPKLLISSTSYRYTGVPDRFTGSGSGTDFTFIISSVQAEDLAVYYCQQHYSTPLTFGAGTKLELK
notes: also called ch-2F8
On to B12, for which the EC50 in assay [1] came to 0.067 nM. Also, in assay [2], binding was put at a Kd of 0.119 nM, the dissociation rate constant (koff) is 0.000114 s⁻¹ and the kon came to 1.13e+06 M⁻¹ s⁻¹.

B13: murine mAb 2F8 (antibody, V domains shown)
VH: B12 VH
VL: B12 VL
notes: as for B4
In assay [3], B13 registered a koff of 6.87e-05 s⁻¹.

B14: chimeric antibody 1C9 (antibody, human IgG1, V domains shown)
VH: B12 VH with Y27D, N31T, S32Y, A37V, L39Q, P53L, N57S, I58S, T71S, T84S
VL: B12 VL with M11L, R30S, K45E, T51A, I74T, S93N, K103Q
On to B14, for which the EC50 in assay [1] came out at 0.068 nM.

B15: murine mAb 2E4 (antibody, V domains shown)
VH: QVQLQQPGSVLVRPGTSVKLSCKASGYTFTSSWMNWVKQRPGQGLEWIGGIYPNRGTTEYNEKFKGKATLTVDTSSSTAFMDLNRLTSEDSAVYYCARDSRFADWGQGTLVTVSA
VL: B12 VL with V3M, M4L, R30S, T31A, T51A, I74T, S93N
notes: as for B4
As for B15, the koff in assay [3] came to 5.97e-05 s⁻¹.
